Residue numbers refer to the chain shown, from its start. Values belong to the binder of their own block, whether it stands above or below them.
Legend:
[1] = target: T1, human TREM2 (human, UniProt Q9NZC2 19-174, limits assumed); assay: 1st screen (110 nM or 10 nM)
T1 construct: also called triggering receptor expressed on myeloid cells 2
T1 sequence: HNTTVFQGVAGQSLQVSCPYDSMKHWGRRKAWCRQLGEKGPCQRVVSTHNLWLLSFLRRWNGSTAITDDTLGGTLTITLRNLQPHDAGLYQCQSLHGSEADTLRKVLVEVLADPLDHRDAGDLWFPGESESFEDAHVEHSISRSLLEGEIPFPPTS

[2] = target: T1, human TREM2; assay: 2nd screen 100 nM

- Binding Signal (fold over 6E7 Parental antibody) [1]: 0.59 fold
- Binding Signal (fold over 6E7 Parental antibody) [2]: 0.5 fold
B3: V80 (antibody, V domains shown)
VH: EVQLVQSGAEVKKPGESLKISCKGSGYSFTSYWIAWVRQMPGKGLEWMGIIYPGDSDTRYSPSFQGQVTISADKSISTAYLQWSSLKASDTAMYFCARQRNFYYDSSDYFDYWGQGTLVTVSS
VL: DIQMTQSPSSVSASVGDRVTITCRASQGISSWLAWYQQKPGKAPKLLIYAASSLQNGVPSRFSGSGSGTDFTLTISSLQPEDFATYFCQQADSFPRTFGQGTKLEIK

- Binding Signal (fold over 6E7 Parental antibody) [1]: 0.3 fold
- Binding Signal (fold over 6E7 Parental antibody) [2]: 0.79 fold
B7: V82 (antibody, V domains shown)
VH: B3 VH with N101T
VL: B3 VL with A51G

- Binding Signal (fold over 6E7 Parental antibody) [1]: 0.2 fold
- Binding Signal (fold over 6E7 Parental antibody) [2]: 0.29 fold
B8: V83 (antibody, V domains shown)
VH: B3 VH with N101T
VL: B3 VL with D92V

- Binding Signal (fold over 6E7 Parental antibody) [1]: 0.33 fold
- Binding Signal (fold over 6E7 Parental antibody) [2]: 0.36 fold
B9: V90 (antibody, V domains shown)
VH: B3 VH with Y32E, N101T
VL: B3 VL with S31R

- Binding Signal (fold over 6E7 Parental antibody) [1]: 0.25 fold
- Binding Signal (fold over 6E7 Parental antibody) [2]: 0.61 fold
B10: V91 (antibody, V domains shown)
VH: B3 VH with G54D, N101T
VL: B3 VL

- Binding Signal (fold over 6E7 Parental antibody) [1]: 0.22 fold
- Binding Signal (fold over 6E7 Parental antibody) [2]: 0.65 fold
B12: V92 (antibody, V domains shown)
VH: B3 VH with N101T, Y103H
VL: B3 VL

- Binding Signal (fold over 6E7 Parental antibody) [1]: 0.37 fold
- Binding Signal (fold over 6E7 Parental antibody) [2]: 0.48 fold
B15: V71 (antibody, V domains shown)
VH: B3 VH with N101T
VL: B3 VL with F94E

- Binding Signal (fold over 6E7 Parental antibody) [1]: 0.79 fold
- Binding Signal (fold over 6E7 Parental antibody) [2]: 0.84 fold
B17: V70 (antibody, V domains shown)
VH: B3 VH with N101T
VL: B3 VL with S52G

- Binding Signal (fold over 6E7 Parental antibody) [1]: 0.86 fold
- Binding Signal (fold over 6E7 Parental antibody) [2]: 1.11 fold
B20: V78 (antibody, V domains shown)
VH: B3 VH with S28R, N101T
VL: B3 VL

- Binding Signal (fold over 6E7 Parental antibody) [1]: 0.17 fold
- Binding Signal (fold over 6E7 Parental antibody) [2]: 0.23 fold
B21: V81 (antibody, V domains shown)
VH: B3 VH with N101T
VL: B3 VL with W32L

- Binding Signal (fold over 6E7 Parental antibody) [1]: 0.35 fold
- Binding Signal (fold over 6E7 Parental antibody) [2]: 1.05 fold
B25: V93 (antibody, V domains shown)
VH: B3 VH with N101T
VL: B3 VL with S31G

- Binding Signal (fold over 6E7 Parental antibody) [1]: 0.7 fold
- Binding Signal (fold over 6E7 Parental antibody) [2]: 0.52 fold
B26: V79 (antibody, V domains shown)
VH: B3 VH with R59N, N101T
VL: B3 VL

The remaining lines, values behind:

B1: V44 (antibody, V domains shown)
VH: B3 VH with G54S, N101T
VL: B3 VL
- Binding Signal (fold over 6E7 Parental antibody) [1]: 0.65 fold
- Binding Signal (fold over 6E7 Parental antibody) [2]: 0.52 fold

B2: V68 (antibody, V domains shown)
VH: B3 VH with N101T, Y103R
VL: B3 VL
- Binding Signal (fold over 6E7 Parental antibody) [1]: 0.44 fold
- Binding Signal (fold over 6E7 Parental antibody) [2]: 0.43 fold

B4: V69 (antibody, V domains shown)
VH: B3 VH with N101T
VL: B3 VL with W32Y
- Binding Signal (fold over 6E7 Parental antibody) [1]: 0.41 fold
- Binding Signal (fold over 6E7 Parental antibody) [2]: 0.4 fold

B5: V66 (antibody, V domains shown)
VH: B3 VH with Y27T, N101T
VL: B3 VL
- Binding Signal (fold over 6E7 Parental antibody) [1]: 0.25 fold
- Binding Signal (fold over 6E7 Parental antibody) [2]: 0.74 fold

B6: V56 (antibody, V domains shown)
VH: B3 VH with S61Q, N101T
VL: B3 VL
- Binding Signal (fold over 6E7 Parental antibody) [1]: 0.23 fold
- Binding Signal (fold over 6E7 Parental antibody) [2]: 0.59 fold

B11: V55 (antibody, V domains shown)
VH: B3 VH with R59I, F64H, N101T
VL: B3 VL
- Binding Signal (fold over 6E7 Parental antibody) [1]: 0.24 fold
- Binding Signal (fold over 6E7 Parental antibody) [2]: 0.66 fold

B13: V47 (antibody, V domains shown)
VH: B3 VH with N101T
VL: B3 VL with R96M
- Binding Signal (fold over 6E7 Parental antibody) [1]: 0.42 fold
- Binding Signal (fold over 6E7 Parental antibody) [2]: 0.47 fold

B14: V45 (antibody, V domains shown)
VH: B3 VH with N101T
VL: B3 VL with W32F
- Binding Signal (fold over 6E7 Parental antibody) [1]: 0.43 fold
- Binding Signal (fold over 6E7 Parental antibody) [2]: 0.53 fold

B16: V46 (antibody, V domains shown)
VH: B3 VH with N101T
VL: B3 VL with S53T
- Binding Signal (fold over 6E7 Parental antibody) [1]: 0.83 fold
- Binding Signal (fold over 6E7 Parental antibody) [2]: 0.96 fold

B18: V58 (antibody, V domains shown)
VH: B3 VH with N101T
VL: B3 VL with A50K
- Binding Signal (fold over 6E7 Parental antibody) [1]: 0.28 fold
- Binding Signal (fold over 6E7 Parental antibody) [2]: 0.68 fold

B19: V59 (antibody, V domains shown)
VH: B3 VH with N101T
VL: B3 VL with Q89M
- Binding Signal (fold over 6E7 Parental antibody) [1]: 0.19 fold
- Binding Signal (fold over 6E7 Parental antibody) [2]: 0.6 fold

B22: V67 (antibody, V domains shown)
VH: B3 VH with I50M, N101T
VL: B3 VL
- Binding Signal (fold over 6E7 Parental antibody) [1]: 0.8 fold
- Binding Signal (fold over 6E7 Parental antibody) [2]: 0.84 fold

B23: V54 (antibody, V domains shown)
VH: B3 VH with Y32Q, N101T
VL: B3 VL
- Binding Signal (fold over 6E7 Parental antibody) [1]: 0.55 fold
- Binding Signal (fold over 6E7 Parental antibody) [2]: 0.54 fold

B24: V57 (antibody, V domains shown)
VH: B3 VH with N101T
VL: B3 VL with R24A
- Binding Signal (fold over 6E7 Parental antibody) [1]: 0.84 fold
- Binding Signal (fold over 6E7 Parental antibody) [2]: 0.85 fold

Source: patent publication US20250282866A1 (VIGIL NEUROSCIENCE, published 2025)
